Laboratory results published in patent US20240270857A1 (CHIA TAI TIANQING PHARMACEUTICAL GROUP, published 2024).

How the values were obtained:
[1] = target: T1, hIL36R-ECD hFc recombinant protein (human); assay: ELISA of hybridoma culture supernatant on hIL-36R
T1 construct: also called hIL-36R extracellular region with human antibody heavy chain Fc

[2] = target: T2, human IL-36R overexpressed on 293T-hIL36R-NFκB cells (human, UniProt Q9HB29 20-575); assay: cell-based or functional assay
T2 sequence: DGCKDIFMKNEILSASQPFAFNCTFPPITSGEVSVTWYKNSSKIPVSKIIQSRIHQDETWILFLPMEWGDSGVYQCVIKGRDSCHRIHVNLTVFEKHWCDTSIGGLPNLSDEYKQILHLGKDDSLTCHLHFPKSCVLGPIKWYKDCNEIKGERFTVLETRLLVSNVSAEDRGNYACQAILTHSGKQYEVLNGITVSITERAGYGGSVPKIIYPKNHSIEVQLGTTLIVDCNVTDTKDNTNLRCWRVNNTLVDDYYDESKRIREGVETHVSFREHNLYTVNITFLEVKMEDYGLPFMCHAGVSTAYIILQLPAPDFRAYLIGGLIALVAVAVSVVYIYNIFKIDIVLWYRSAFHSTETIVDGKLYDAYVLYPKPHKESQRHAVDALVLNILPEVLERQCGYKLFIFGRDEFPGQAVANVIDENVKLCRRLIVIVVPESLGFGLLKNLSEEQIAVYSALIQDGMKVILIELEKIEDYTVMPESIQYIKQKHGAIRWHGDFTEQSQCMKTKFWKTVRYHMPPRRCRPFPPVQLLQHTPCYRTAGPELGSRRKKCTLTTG

[3] = target: T2, human IL-36R overexpressed on …; assay: cell-based or functional assay; remark: listed apart in the source
[4] = target: T3, Human IL-1Rrp2/IL-1R6 protein, His Tag (ACROBiosystems, IL2-H52H6) (human, UniProt Q9HB29 20-335); assay: BLI (ForteBio Octet), antibody on ProA sensor, 1:1 model
T3 construct: Bought protein; the soluble protein is likely only the extracellular part; also called hIL-36R; human IL36R antigen; not shown: His tag
T3 sequence: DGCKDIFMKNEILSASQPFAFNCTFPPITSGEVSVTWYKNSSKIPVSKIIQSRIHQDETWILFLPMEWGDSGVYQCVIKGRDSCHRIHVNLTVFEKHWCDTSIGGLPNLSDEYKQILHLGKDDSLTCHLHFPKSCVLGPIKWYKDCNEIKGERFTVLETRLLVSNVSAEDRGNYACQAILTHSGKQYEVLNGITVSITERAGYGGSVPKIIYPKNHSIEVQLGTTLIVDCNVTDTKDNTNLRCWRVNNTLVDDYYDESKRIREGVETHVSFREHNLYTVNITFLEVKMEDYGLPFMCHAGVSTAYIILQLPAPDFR
Procedure: The affinity of anti-IL-36R antibodies to CynoIL36R-ECD mFc and human IL-1Rrp2/IL-IR6 protein, His Tag (ACROBiosystems, IL2-H52H6) was measured by a ForteBio molecular interaction instrument. […] And then the biosensor was used to bind CynoIL36R-ECD mFc or human IL-1Rrp2/IL-1R6 protein, His Tag which was diluted by a gradient (the initial concentration was 200 nM, 2-fold gradient dilution), the response signals were detected in real time using a Fortebio molecular interaction instrument (SARTORIUS, octet red 96e), and association and dissociation curves were obtained. After the completion of dissociation in each cycle, the biosensor was regenerated for the next capture; the procedure was repeated until the affinity of the different anti-IL-36R antibodies for IL-36R was determined. The resulting data were analyzed by Fortebio Data Analysis 11.0 software in a 1:1 (Langmuir) binding model to determine kₐ (kₒₙ) and kd (koff) values, and the dissociation constant KD was calculated by KD=kd/kₐ. The detection method essentially followed the manufacturer's recommendations, and more information could be found at www.fortebio.com.

[5] = target: T4, IL-36R naturally expressed on OVCAR8 cells and on normal human epidermal keratinocytes (NHK cells) (human, UniProt Q9HB29 20-575); assay: cell-based or functional assay
T4 sequence (looked up): T2 sequence

[6] = target: T4, IL-36R naturally expressed on OVCAR8 …; assay: cell-based or functional assay; remark: listed apart in the source
[7] = target: T4, IL-36R naturally expressed on OVCAR8 …; assay: cell-based or functional assay; remark: listed apart in the source
[8] = target: T4, IL-36R naturally expressed on OVCAR8 …; assay: cell-based or functional assay; remark: listed apart in the source
[9] = target: T5, cynomolgus IL-36R overexpressed on 293T-CynoIL36R-NFκB cells (cynomolgus monkey); assay: FACS on 293T-CynoIL36R-NFκB cells, ratio of MFI to background MFI
T5 construct: Entry includes the signal peptide; also called monkey IL-36R
T5 chain: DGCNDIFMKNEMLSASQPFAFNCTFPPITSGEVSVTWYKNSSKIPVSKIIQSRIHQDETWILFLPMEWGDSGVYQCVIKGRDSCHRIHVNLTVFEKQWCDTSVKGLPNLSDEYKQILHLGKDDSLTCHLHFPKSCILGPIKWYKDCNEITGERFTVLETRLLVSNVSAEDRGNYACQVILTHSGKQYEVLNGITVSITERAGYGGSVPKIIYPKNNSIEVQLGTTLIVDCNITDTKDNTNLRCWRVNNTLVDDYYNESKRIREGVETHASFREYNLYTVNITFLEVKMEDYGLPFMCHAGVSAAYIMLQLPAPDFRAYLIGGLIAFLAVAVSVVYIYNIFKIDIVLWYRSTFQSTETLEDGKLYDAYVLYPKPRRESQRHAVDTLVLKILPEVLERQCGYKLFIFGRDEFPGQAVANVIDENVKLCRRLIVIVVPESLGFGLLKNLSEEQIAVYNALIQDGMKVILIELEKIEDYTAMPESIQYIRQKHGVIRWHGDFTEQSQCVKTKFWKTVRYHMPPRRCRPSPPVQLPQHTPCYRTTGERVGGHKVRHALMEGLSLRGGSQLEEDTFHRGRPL
Procedure: After the cells was washed with PBS, the cells were resuspended with 100 μL of PBS and then the fluorescence signal was detected using a flow cytometer (BD, Accuri C6). […] The ratio was the ratio of mean fluorescence intensity (MFI) of the experimental group/the background MFI, and the resulting data were analyzed using GraphPad Prism.

[10] = target: T2, human IL-36R overexpressed on …; assay: cell-based or functional assay; remark: listed apart in the source
[11] = target: T4, IL-36R naturally expressed on OVCAR8 …; assay: cell-based or functional assay; remark: listed apart in the source
[12] = target: T4, IL-36R naturally expressed on OVCAR8 …; assay: cell-based or functional assay; remark: listed apart in the source

T1 sequence (chain, as listed by the source limits assumed): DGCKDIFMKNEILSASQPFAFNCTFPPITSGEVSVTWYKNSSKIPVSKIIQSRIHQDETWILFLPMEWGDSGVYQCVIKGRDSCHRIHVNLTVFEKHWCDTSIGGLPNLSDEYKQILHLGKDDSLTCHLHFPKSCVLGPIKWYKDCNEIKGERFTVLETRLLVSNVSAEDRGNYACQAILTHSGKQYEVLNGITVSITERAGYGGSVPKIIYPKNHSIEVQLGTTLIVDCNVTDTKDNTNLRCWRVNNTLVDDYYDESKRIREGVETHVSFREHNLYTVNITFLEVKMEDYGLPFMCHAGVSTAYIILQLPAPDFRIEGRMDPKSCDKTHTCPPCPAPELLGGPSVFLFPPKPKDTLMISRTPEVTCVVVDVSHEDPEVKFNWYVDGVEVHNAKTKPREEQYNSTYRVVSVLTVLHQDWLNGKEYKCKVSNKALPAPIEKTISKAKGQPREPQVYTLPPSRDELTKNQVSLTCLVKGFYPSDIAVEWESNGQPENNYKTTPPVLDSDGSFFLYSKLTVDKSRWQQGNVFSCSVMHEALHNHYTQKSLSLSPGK

B1: mouse antibody 84C4 (hybridoma clone 84C4) (antibody, V domains shown)
VH: EVQLQQLGAELVRPGASVMLSCKVSGYFFTSYWMNWVNQRPGQGLEWIGMIHPYDSETRLNQKFKGKATLTVDKSASTAYLQLSSPTSEEYAVYYCASSTTAFAYWGQGTLVTVSA
VL: DILMTQSPSSLSASLGERVSLTCRASQDIGNALNWLQQAPDGTIKRLIYATSSLDPGVPKRFSGSRSGSDYSLTISSLASEDFVYYYCLQYASSPYTFGGGTKLEIK
notes: Mouse hybridoma antibody tested as culture supernatant
[1]
  binding result: binds

B2: chimeric 58A8D1 antibody (antibody, human IgG4 S228P, kappa, V domains shown)
VH: EVQLQQLGSVLVRPGISVKLSCKASGYSFTSSWMHWTKQRPGQGLEWIGEIHPNSGNTNYNEKFKGKATLTVDTSSRTAYVDLSSLTSEDSAVYYCARSPYGYGGSMDYWGQGTSVTVSS
VL: DIQMTQTTSSLSASLGDRVTISCRASQDIHNYLNWYQQKPDGTVKLLIYYTSRLYSGVPSRFSGSGSGTDYSLTISNLEQEDFATYFCQQGNTLPVMFGSGTKLELKR
notes: Mouse variable regions on human IgG4 / kappa; also called xi58A8D1
[2]
  IC50; NFκB-luciferase reporter in 293T-hIL36R-NFκB cells stimulated with hIL36β, inhibition rate %: 9.77 nM
[3]
  IC50; NFκB-luciferase reporter in 293T-hIL36R-NFκB cells stimulated with hIL36γ, inhibition rate %: ~40.8 nM
[4]
  Kd: 0.254 nM
  koff: 9.15e-06 s⁻¹
  kon: 36000 M⁻¹ s⁻¹
[5]
  IC50; IL-8 production of NHK cells stimulated with hIL36γ, inhibition rate %: 0.0136 nM
[6]
  IC50; IL-8 production of OVCAR8 cells stimulated with hIL36α, inhibition rate %: 0.253 nM
[7]
  IC50; IL-8 production of NHK cells stimulated with hIL36β, inhibition rate %: 0.0791 nM
[8]
  IC50; IL-8 production of OVCAR8 cells stimulated with hIL36β, inhibition rate %: 0.415 nM
[9]
  EC50: 20.8 nM
[10]
  IC50; NFκB-luciferase reporter in 293T-hIL36R-NFκB cells stimulated with hIL36α, inhibition rate %: 16.4 nM
[11]
  IC50; IL-8 production of NHK cells stimulated with hIL36α, inhibition rate %: 0.0693 nM
[12]
  IC50; IL-8 production of OVCAR8 cells stimulated with hIL36γ, inhibition rate %: 0.213 nM

B3: mouse antibody 58A8D1 (hybridoma clone 58A8D1) (antibody, V domains shown)
VH: B2 VH
VL: DIQMTQTTSSLSASLGDRVTISCRASQDIHNYLNWYQQKPDGTVKLLIYYTSRLYSGVPSRFSGSGSGTDYSLTISNLEQEDFATYFCQQGNTLPVMFGSGTKLELK
notes: as for B1
[1]
  binding result: binds

B4: chimeric 6G10 antibody (antibody, human IgG4 S228P, kappa, V domains shown)
VH: EVMLVESGGGLVKPGGSLKLSCAASGITFSRFAMSWIRQTPEKRLEWVATISSGDMYTYYPDSVKGRFTISRDNANNTLYLQMRSLRSEDTAMYYCAIMITTGEHAYWGQGTLVTVSA
VL: EIKMTQSPSSLSASLGDTITITCRASQDISVWLTWYQQKPGNIPKLLIYKASNLHTGVPPRFSGSGSGTDFTFTISSLQPEDITTYYCLQSQSYPWTFGGGTKLEIKR
notes: Mouse variable regions on human IgG4 / kappa; also called xi6G10
[2]
  IC50; NFκB-luciferase reporter in 293T-hIL36R-NFκB cells stimulated with hIL36β, inhibition rate %: 1.8 nM
[3]
  IC50; NFκB-luciferase reporter in 293T-hIL36R-NFκB cells stimulated with hIL36γ, inhibition rate %: ~40.2 nM
[4]
  Kd: 0.881 nM
  koff: 5.01e-05 s⁻¹
  kon: 56900 M⁻¹ s⁻¹
[5]
  IC50; IL-8 production of NHK cells stimulated with hIL36γ, inhibition rate %: 0.13 nM
[6]
  IC50; IL-8 production of OVCAR8 cells stimulated with hIL36α, inhibition rate %: 0.0704 nM
[7]
  IC50; IL-8 production of NHK cells stimulated with hIL36β, inhibition rate %: 1.27 nM
[8]
  IC50; IL-8 production of OVCAR8 cells stimulated with hIL36β, inhibition rate %: 0.182 nM
[9]
  EC50: 3.49 nM
[10]
  IC50; NFκB-luciferase reporter in 293T-hIL36R-NFκB cells stimulated with hIL36α, inhibition rate %: 2.77 nM
[11]
  IC50; IL-8 production of NHK cells stimulated with hIL36α, inhibition rate %: 0.555 nM
[12]
  IC50; IL-8 production of OVCAR8 cells stimulated with hIL36γ, inhibition rate %: 0.0727 nM

B5: mouse antibody 6G10 (hybridoma clone 6G10) (antibody, V domains shown)
VH: B4 VH
VL: EIKMTQSPSSLSASLGDTITITCRASQDISVWLTWYQQKPGNIPKLLIYKASNLHTGVPPRFSGSGSGTDFTFTISSLQPEDITTYYCLQSQSYPWTFGGGTKLEIK
notes: as for B1
[1]
  binding result: binds

B6: mouse antibody 72C1 (hybridoma clone 72C1) (antibody, V domains shown)
VH: EVQLQQSGPSLVKPSQTLSLTCSVTGASITSGYWNWIRNFPGNKLEYMGYISYSGYTYYNPSLKSRISITRDTSKNQYYLQLISVTTEDTATYYCATGGYDYVEDALYYWGQGTSVTVSS
VL: EILLTQSPAIMSATLGEKVTMSCRASSNVRYMYWYQLKSGASPKLWIYLTSNLASGVPARFSGSGSGTSYSLTISSVEAEDAATYFCQQFTTSPYTFGGGTKLEIK
notes: as for B1
[1]
  binding result: binds

B7: mouse antibody 74B4D6 (hybridoma clone 74B4D6) (antibody, V domains shown)
VH: EVQLQQPGAELGKPGASVKMACKASGYTFTNYWIHWVKQRPGQGLEWIGTIDPSENYTNYNQKFKGKATLTVDTSSSTAYMQLSSLTSEDKAVYFCTGSSFSYWGQGTLVTVSA
VL: QNVLTQSPAIMSVSPGEKVTMTCSASSSVSFIHWFQQKPGTSPKLWIYTTSNLASGVPARFSGSGSGTSYSLTISRMEAEDAATYYCQQRSSYPLTFGAGTKLELK
notes: as for B1
[1]
  binding result: binds
